Reference: patent US9618524B2, “Method, composition, isolation and identification of a plaque particle and related biomarker” (Plaxgen Inc., priority 2012, dated 2017)

B1: Alpha-1-antichymotrypsin (protein)
chain: HPNSPLDEENLTQENQDRGTHVDLGLASANVDFAFSLYKQLVLKAPDKNVIFSPLSISTALAFLSLGAHNTTLTEILKGLKFNLTETSEAEIHQSFQHLLRTLNQSSDELQLSMGNAMFVKEQLSLLDRFTEDAKRLYGSEAFATDFQDSAAAKKLINDYVKNGTRGKITDLIKDLDSQTMMVLVNYIFFKAKWEMPFDPQDTHQSRFYLSKKKWVMVPMMSLHHLTIPYFRDEELSCTVVELKYTGNASALFILPDQDKMEEVEAMLLPETLKRWRDSLEFREIGELYLPKFSISRDYNLNDILLQLGIEEAFTSKADLSGITGARNLAVSQVVHKAVLDVFEEGTEASAATAVKITLLSALVETRTIVRFNRPFLMIIVPTDTQNIFFMSKVTNPKQA
B2: Cluster of Kininogen-1 (protein, UniProt P01042 19-644, looked up)
Kininogen-1: QESQSEEIDCNDKDLFKAVDAALKKYNSQNQSNNQFVLYRITEATKTVGSDTFYSFKYEIKEGDCPVQSGKTWQDCEYKDAAKAATGECTATVGKRSSTKFSVATQTCQITPAEGPVVTAQYDCLGCVHPISTQSPDLEPILRHGIQYFNNNTQHSSLFMLNEVKRAQRQVVAGLNFRITYSIVQTNCSKENFLFLTPDCKSLWNGDTGECTDNAYIDIQLRIASFSQNCDIYPGKDFVQPPTKICVGCPRDIPTNSPELEETLTHTITKLNAENNATFYFKIDNVKKARVQVVAGKKYFIDFVARETTCSKESNEELTESCETKKLGQSLDCNAEVYVVPWEKKIYPTVNCQPLGMISLMKRPPGFSPFRSSRIGEIKEETTVSPPHTSMAPAQDEERDSGKEQGHTRRHDWGHEKQRKHNLGHGHKHERDQGHGHQRGHGLGHGHEQQHGLGHGHKFKLDDDLEHQGGHVLDHGHKHKHGHGHGKHKNKGKKNGKHNGWKTEHLASSSEDSTTPSAQTQEKTEGPTPIPSLAKPGVTVTFSDFQDSDLIATMMPPISPAPIQSDDDWIPDIQIDPNGLSFNPISDFPDTTSPKCPGRPWKSVSEINPTTQMKESYYFDLTDGLS
B3: Kininogen-1 (protein)
chain: QESQSEEIDCNDKDLFKAVDAALKKYNSQNQSNNQFVLYRITEATKTVGSDTFYSFKYEIKEGDCPVQSGKTWQDCEYKDAAKAATGECTATVGKRSSTKFSVATQTCQITPAEGPVVTAQYDCLGCVHPISTQSPDLEPILRHGIQYFNNNTQHSSLFMLNEVKRAQRQVVAGLNFRITYSIVQTNCSKENFLFLTPDCKSLWNGDTGECTDNAYIDIQLRIASFSQNCDIYPGKDFVQPPTKICVGCPRDIPTNSPELEETLTHTITKLNAENNATFYFKIDNVKKARVQVVAGKKYFIDFVARETTCSKESNEELTESCETKKLGQSLDCNAEVYVVPWEKKIYPTVNCQPLGMISLMKRPPGFSPFRSSRIGEIKEETTVSPPHTSMAPAQDEERDSGKEQGHTRRHDWGHEKQRKHNLGHGHKHERDQGHGHQRGHGLGHGHEQQHGLGHGHKFKLDDDLEHQGGHVLDHGHKHKHGHGHGKHKNKGKKNGKHNGWKTEHLASSSEDSTTPSAQTQEKTEGPTPIPSLAKPGVTVTFSDFQDSDLIATMMPPISPAPIQSDDDWIPDIQIDPNGLSFNPISDFPDTTSPKCPGRPWKSVSEINPTTQMKESYYFDLTDGLS
B4: Isoform LMW of Kininogen-1 (protein)
chain: QESQSEEIDCNDKDLFKAVDAALKKYNSQNQSNNQFVLYRITEATKTVGSDTFYSFKYEIKEGDCPVQSGKTWQDCEYKDAAKAATGECTATVGKRSSTKFSVATQTCQITPAEGPVVTAQYDCLGCVHPISTQSPDLEPILRHGIQYFNNNTQHSSLFMLNEVKRAQRQVVAGLNFRITYSIVQTNCSKENFLFLTPDCKSLWNGDTGECTDNAYIDIQLRIASFSQNCDIYPGKDFVQPPTKICVGCPRDIPTNSPELEETLTHTITKLNAENNATFYFKIDNVKKARVQVVAGKKYFIDFVARETTCSKESNEELTESCETKKLGQSLDCNAEVYVVPWEKKIYPTVNCQPLGMISLMKRPPGFSPFRSSRIGEIKEETTSHLRSCEYKGRPPKAGAEPASEREVS
B5: Apolipoprotein A-IV (protein)
chain: EVSADQVATVMWDYFSQLSNNAKEAVEHLQKSELTQQLNALFQDKLGEVNTYAGDLQKKLVPFATELHERLAKDSEKLKEEIGKELEELRARLLPHANEVSQKIGDNLRELQQRLEPYADQLRTQVSTQAEQLRRQLTPYAQRMERVLRENADSLQASLRPHADELKAKIDQNVEELKGRLTPYADEFKVKIDQTVEELRRSLAPYAQDTQEKLNHQLEGLTFQMKKNAEELKARISASAEELRQRLAPLAEDVRGNLRGNTEGLQKSLAELGGHLDQQVEEFRRRVEPYGENFNKALVQQMEQLRQKLGPHAGDVEGHLSFLEKDLRDKVNSFFSTFKEKESQDKTLSLPELEQQQEQQQEQQQEQVQMLAPLES
B6: Alpha-2-HS-glycoprotein (protein)
chain 1: APHGPGLIYRQPNCDDPETEEAALVAIDYINQNLPWGYKHTLNQIDEVKVWPQQPSGELFEIEIDTLETTCHVLDPTPVARCSVRQLKEHAVEGDCDFQLLKLDGKFSVVYAKCDSSPDSAEDVRKVCQDCPLLAPLNDTRVVHAAKAALAAFNAQNNGSNFQLEEISRAQLVPLPPSTYVEFTVSGTDCVAKEATEAAKCNLLAEKQYGFCKATLSEKLGGAEVAVTCMVFQTQPVSSQPQPEGANEAVPTPVVDPDAPPSPPLGAPGLPPAGSPPDSHVL
chain 2: TVVQPSVGAAAGPVVPPCPGRIRHFKV
B7: Afamin (protein)
chain: LPTQPRDIENFNSTQKFIEDNIEYITIIAFAQYVQEATFEEMEKLVKDMVEYKDRCMADKTLPECSKLPNNVLQEKICAMEGLPQKHNFSHCCSKVDAQRRLCFFYNKKSDVGFLPPFPTLDPEEKCQAYESNRESLLNHFLYEVARRNPFVFAPTLLTVAVHFEEVAKSCCEEQNKVNCLQTRAIPVTQYLKAFSSYQKHVCGALLKFGTKVVHFIYIAILSQKFPKIEFKELISLVEDVSSNYDGCCEGDVVQCIRDTSKVMNHICSKQDSISSKIKECCEKKIPERGQCIINSNKDDRPKDLSLREGKFTDSENVCQERDADPDTFFAKFTFEYSRRHPDLSIPELLRIVQIYKDLLRNCCNTENPPGCYRYAEDKFNETTEKSLKMVQQECKHFQNLGKDGLKYHYLIRLTKIAPQLSTEELVSLGEKMVTAFTTCCTLSEEFACVDNLADLVFGELCGVNENRTINPAVDHCCKTNFAFRRPCFESLKADKTYVPPPFSQDLFTFHADMCQSQNEELQRKTDRFLVNLVKLKHELTDEELQSLFTNFANVVDKCCKAESPEVCFNEESPKIGN
B8: Beta-2-glycoprotein 1 (protein)
chain: GRTCPKPDDLPFSTVVPLKTFYEPGEEITYSCKPGYVSRGGMRKFICPLTGLWPINTLKCTPRVCPFAGILENGAVRYTTFEYPNTISFSCNTGFYLNGADSAKCTEEGKWSPELPVCAPIICPPPSIPTFATLRVYKPSAGNNSLYRDTAVFECLPQHAMFGNDTITCTTHGNWTKLPECREVKCPFPSRPDNGFVNYPAKPTLYYKDKATFGCHDGYSLDGPEEIECTKLGNWSAMPSCKASCKVPVKKATVVYQGERVKIQEKFKNGMLHGDKVSFFCKNKEKKCSYTEDAQCIDGTIEVPKCFKEHSSLAFWKTDASDVKPC

Legend:
Assay in all cases: Mass spectroscopy proteomics, semi-quantitative binding affinity of serum proteins (plaqueproteome, Table 2)
Conditions in all cases: higher number = stronger affinity
[1] = target: T1, Abeta-42 plaque particles (Homo sapiens, UniProt P05067)
T1 construct: Abeta 1-42
How it was run: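 AD patient serum or plasma (50% in PBS) was incubated with Abeta-42 aggregates (30 μg) for 1 h at 37 °C, then stained with Thioflavin S for 30 min. Labeled particles were FACS-sorted, trypsin/Lys-C digested overnight and analyzed by MS/MS. Sequest searched human UniProt; Scaffold/Protein Prophet validated the identifications.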

[2] = test system: High Density cholesterol (Chl Large) plaque particles; set-up: species or system human
How it was run: (§1)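 Proteins bound to flow-sorted cholesterol plaque particles (large/high-density or small/low-density gates) were identified by LC-MS/MS after trypsin digestion. Particles were formed from 50% atherosclerotic serum or plasma with 30 μg cholesterol aggregates, 1 h, 37 °C. Sequest human database search; Scaffold validation.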

[3] = test system: Low density cholesterol (Chl small) plaque particles; set-up: species or system human
How it was run: as §1

[4] = target: T2, alpha-synuclein plaque particles (Homo sapiens, UniProt P37840)
T2 construct: 140 amino acids polypeptide
How it was run: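 AD-subject plasma or serum (800 μL of 50%) mixed with 30 μg preformed alpha-synuclein aggregates for 1 h at 37 °C; Thioflavin S-positive particles isolated by flow sorting. After reduction, acrylamide alkylation and overnight tryptic digestion, serum proteins identified by MS/MS with Sequest and Scaffold.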

Tau plaque particles = test system: Tau plaque particles; set-up: species or system human
How it was run: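 Serum or plasma proteins captured on Thioflavin S-labelled Tau plaque particles (Tau-74, Tau-275 oligomers preformed in PBS at 37° C for 2 h; 1 h co-incubation at 37° C) were isolated by FACS sorting, then tryptically digested and identified by MS/MS (Sequest, human UniProt, strict trypsin).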

Molecule | Semi-quantitative analysis of proteins binding to different plaque particles: Abeta-42 [1] | Semi-quantitative analysis of proteins binding to different plaque particles: Chl Large [2] | Semi-quantitative analysis of proteins binding to different plaque particles: Chl small [3] | Semi-quantitative analysis of proteins binding to different plaque particles: Synuclein [4] | Semi-quantitative analysis of proteins binding to different plaque particles: Tau (Tau plaque particles)
B1 | 11 | 14 | 11 | 20 | 16
B2 | 0 | 4 | 8 | 6 | 1
B3 | 0 | 3 | 7 | 4 | 1
B4 | 0 | 4 | 8 | 6 | 1
B5 | 5 | 8 | 9 | 7 | 10
B6 | 2 | 9 | 11 | 10 | 10
B7 | 2 | 6 | 6 | 6 | 3
B8 | 4 | 6 | 6 | 7 | 5
